Patent US20230220008A1 (Bicycle, published 2023)
Starred links: 1 amine or outer side, 2 acyl side, 3 side chain; linkers in the order of their positions; H or OH if unused. Positions of bridges follow the written chain, without caps; N, C: chain ends. Non-standard residues stand in square brackets, D forms with d. No end group written: not given here. BCN = bicyclo[6.1.0]non-4-yn-9-ylmethyl carbonate as carbamate, click handle; TATA = O=C(CC[*:1])N1CN(C(=O)CC[*:2])CN(C(=O)CC[*:3])C1; tBuAla = CC(C)(C)C[C@H](N)C(=O)O; Nle = CCCC[C@H](N)C(=O)O; PYA = propargyl-acid

B1: BCY8584 (peptide)
peptide: XACIEEGQYCFADPYXCA
modifications: not fully specified; (PYA)-A-CiIEEGQYCiiF[D-A]DPY[Nle]Ciii-A; Cys on TATA scaffold
B2: BCY8582 (peptide)
peptide: XACIEEGQYCFADPYXCA
modifications: not fully specified; (PYA)-A-CiIEEGQYCiiF[D-A]DPY[Nle]Ciii-A; Cys on TATA scaffold
B3: BCY8149 (peptide)
peptide: XACIEEGQYCFADPYXCA
modifications: not fully specified; (BCN)-A-CiIEEGQYCiiFADPY(Nle)Ciii-A; Cys on TATA scaffold
B4: BCY8150 (peptide)
peptide: Ac-ACIEK(BCN)GQYCFADPY[Nle]CA
modifications: linker 2-9-16 via TATA; not fully specified; also: tetramer of four peptide units on central hinge A (TET) via spacer S1A n=10
B5: BCY8151 (peptide)
peptide: Ac-ACIEEGK(BCN)YCFADPY[Nle]CA
modifications: linker 2-9-16 via TATA; not fully specified; also: trimer of three peptide units on central hinge B (TCA) via spacer S1A n=10
B6: BCY8937 (peptide)
peptide: Ac-ACIEK(PYA)GQYCF[dA]DPY[Nle]CA
modifications: linker 2-9-16 via TATA; not fully specified
B7: BCY8583 (peptide)
peptide: XACIEEGQYCFADPYXCA
modifications: not fully specified; (PYA)-A-CiIEEGQYCiiF[D-A]DPY[Nle]Ciii-A; Cys on TATA scaffold
B8: BCY8581 (peptide)
peptide: XACIEEGQYCFADPYXCA
modifications: not fully specified; (PYA)-A-CiIEEGQYCiiF[D-A]DPY[Nle]Ciii-A; Cys on TATA scaffold
B9: BCY7845 (peptide)
peptide: Ac-ACIEEGK(PYA)YCFADPY[Nle]CA
modifications: linker 2-9-16 via TATA; not fully specified; also: tetramer of four peptide units on central hinge A (TET) via spacer S1A n=10
B10: BCY8948 (peptide)
peptide: Ac-C[tBuAla]PE[dK](PYA)PYCFADPY[Nle]CA
modifications: linker 1-8-15 via TATA; not fully specified
B11: BCY8959 (peptide)
peptide: Ac-ACIEK(PYA)GQYCFADPY[Nle]CA
modifications: linker 2-9-16 via TATA; not fully specified
B12: BCY8961 (peptide)
peptide: Ac-ACIEK(PYA)GQYCFADPY[Nle]CA
modifications: linker 2-9-16 via TATA; not fully specified
B13: BCY8957 (peptide)
peptide: Ac-ACIEK(PYA)GQYCFADPY[Nle]CA
modifications: linker 2-9-16 via TATA; not fully specified
B14: BCY8947 (peptide)
peptide: Ac-C[tBuAla]PE[dK](PYA)PYCFADPY[Nle]CA
modifications: linker 1-8-15 via TATA; not fully specified
B15: BCY8962 (peptide)
peptide: Ac-ACIEK(PYA)GQYCFADPY[Nle]CA
modifications: linker 2-9-16 via TATA; not fully specified
B16: BCY8965 (peptide)
peptide: Ac-ACIEK(PYA)GQYCFADPY[Nle]CA
modifications: linker 2-9-16 via TATA; not fully specified
B17: BCY9113 (peptide)
peptide: Ac-ACIEK(PYA)GQYCF[dA]DPY[Nle]CA
modifications: linker 2-9-16 via TATA; not fully specified
B18: BCY8935 (peptide)
peptide: XACIEEGQYCFXDPYXCA
modifications: (PYA)-A-CiIEEGQYCiiF[D-A]DPY[Nle]Ciii-A; Ci, Cii, Ciii cyclised on TATA
notes: Bicyclic peptide monomer; also called Monomer 10A
B19: BCY8926 (peptide)
peptide: Ac-ACIEK(PYA)GQYCF[dA]DPY[Nle]CA
modifications: linker 2-9-16 via TATA
notes: Bicyclic peptide monomer; also called Monomer 14A
B20: BCY8925 (peptide)
peptide: Ac-ACIE[dK](PYA)GQYCF[dA]DPY[Nle]CA
modifications: linker 2-9-16 via TATA
notes: Bicyclic peptide monomer; also called Monomer 13A
B21: BCY7740 (peptide)
peptide: XACIEEGQYCFADPYXCA
modifications: (PYA)-A-CiIEEGQYCiiFADPY(Nle)Ciii-A; Ci, Cii, Ciii cyclised on TATA
notes: Bicyclic peptide monomer; also called Monomer 1A
B22: BCY8144 (peptide)
peptide: Ac-ACIEEGQYCK(BCN)ADPY[Nle]CA
modifications: linker 2-9-16 via TATA
notes: Bicyclic peptide monomer; also called Monomer 7-BCN
B23: BCY8142 (peptide)
peptide: Ac-ACIEK(BCN)GQYCFADPY[Nle]CA
modifications: linker 2-9-16 via TATA
notes: Bicyclic peptide monomer; also called Monomer 4-BCN
B24: BCY7745 (peptide)
peptide: Ac-ACIEEGK(PYA)YCFADPY[Nle]CA
modifications: linker 2-9-16 via TATA
notes: Bicyclic peptide monomer; also called Monomer 6A
B25: BCY8141 (peptide)
peptide: XACIEEGQYCFADPYXCA
modifications: (BCN)-A-CiIEEGQYCiiFADPY(Nle)Ciii-A; Ci, Cii, Ciii cyclised on TATA
notes: Bicyclic peptide monomer; also called Monomer 1-BCN
B26: BCY8927 (peptide)
peptide: Ac-C[tBuAla]PK(PYA)[dA]PYCFADPY[Nle]CA
modifications: linker 1-8-15 via TATA
notes: Bicyclic peptide monomer; also called Monomer 11A
B27: BCY7746 (peptide)
peptide: Ac-ACIEEGQYCK(PYA)ADPY[Nle]CA
modifications: linker 2-9-16 via TATA
notes: Bicyclic peptide monomer; also called Monomer 7A
B28: BCY7741 (peptide)
peptide: ACIEEGQYCFADPYXCX
modifications: Ac-A-CiIEEGQYCiiFADPY(Nle)Ciii-Dap(PYA); Ci, Cii, Ciii cyclised on TATA
notes: Bicyclic peptide monomer; also called Monomer 2A
B29: BCY8097 (peptide)
peptide: ACIEEGQYCFADPYXCA
modifications: Ac-A-CiIEEGQYCiiFADPYK(BCN)Ciii-A; Ci, Cii, Ciii cyclised on TATA
notes: Bicyclic peptide monomer; also called Monomer 9-BCN
B30: BCY7748 (peptide)
peptide: ACIEEGQYCFADPYXCA
modifications: Ac-A-CiIEEGQYCiiFADPYK(PYA)Ciii-A; Ci, Cii, Ciii cyclised on TATA
notes: Bicyclic peptide monomer; also called Monomer 9A
B31: BCY8928 (peptide)
peptide: Ac-C[tBuAla]PE[dK](PYA)PYCFADPY[Nle]CA
modifications: linker 1-8-15 via TATA
notes: also called Monomer 12A
B32: BCY7747 (peptide)
peptide: Ac-ACIEEGQYCFADK(PYA)Y[Nle]CA
modifications: linker 2-9-16 via TATA
notes: Bicyclic peptide monomer; also called Monomer 8A
B33: BCY7743 (peptide)
peptide: Ac-ACIEK(PYA)GQYCFADPY[Nle]CA
modifications: linker 2-9-16 via TATA
notes: Bicyclic peptide monomer; also called Monomer 4A
B34: BCY8143 (peptide)
peptide: Ac-ACIEEGK(BCN)YCFADPY[Nle]CA
modifications: linker 2-9-16 via TATA
notes: Bicyclic peptide monomer; also called Monomer 6-BCN
B35: BCY7742 (peptide)
peptide: Ac-ACIK(PYA)EGQYCFADPY[Nle]CA
modifications: linker 2-9-16 via TATA
notes: Bicyclic peptide monomer; also called Monomer 3A
B36: BCY8095 (peptide)
peptide: Ac-ACIK(BCN)EGQYCFADPY[Nle]CA
modifications: linker 2-9-16 via TATA
notes: Bicyclic peptide monomer; also called Monomer 3-BCN

Molecular target: T1, CD137 on Jurkat reporter cells (Promega) (UniProt Q07011 24-255, limits assumed)
Experiment: cell-based or functional assay

T1 sequence (Q07011 24-255 limits assumed): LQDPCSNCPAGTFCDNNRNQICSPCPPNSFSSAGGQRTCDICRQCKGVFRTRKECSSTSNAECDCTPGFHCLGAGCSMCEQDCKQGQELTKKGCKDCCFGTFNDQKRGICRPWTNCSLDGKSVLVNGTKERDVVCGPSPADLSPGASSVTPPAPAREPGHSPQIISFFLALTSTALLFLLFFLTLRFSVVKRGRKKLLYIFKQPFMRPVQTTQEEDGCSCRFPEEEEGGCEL

Binder | Fold Induction over Background [fold] | Average Fold EC50 Improvement relative to CD137L [fold] | Average Relative Fold Induction relative to CD137L [fold]
B1 | < 2 |  | 
B2 | < 2 |  | 
B3 |  | 140 | 0.93
B4 |  | 4.14 | 0.77
B5 |  | 213 | 0.49
B6 | < 2 |  | 
B7 |  | 0.031 | 3.14
B8 | < 2 |  | 

Molecular target: T1, CD137 on Jurkat reporter cells (Promega)
Experiment: cell-based or functional assay
Remark: another data set of the same source

Binder | Average EC50 [nM] | Average fold induction [fold] | Fold Induction over Background [fold] | Average Fold EC50 Improvement relative to BCY7845 [fold] | Average Relative Fold Induction relative to BCY7845 [fold]
B9 | 0.57 | 6.3 |  |  | 
B10 |  |  | < 2 |  | 
B11 |  |  | < 2 |  | 
B12 |  |  | < 2 |  | 
B13 |  |  | < 2 |  | 
B14 |  |  |  | 1.33 | 0.62
B15 |  |  | < 2 |  | 
B16 |  |  | < 2 |  | 
B17 |  |  | < 2 |  | 

Molecular target: T2, Recombinant human CD137 (R&D systems), biotinylated (human, UniProt Q07011 24-186, biotinylated with EZ-Link Sulfo-NHS-LC-LC-Biotin)
T2 construct: Bought protein; Captured on a streptavidin chip; also called human CD137 protein; 4-1BB
Experiment: SPR (Biacore), biotinylated human CD137 captured on streptavidin chip

T2 sequence (Q07011 24-186 limits assumed): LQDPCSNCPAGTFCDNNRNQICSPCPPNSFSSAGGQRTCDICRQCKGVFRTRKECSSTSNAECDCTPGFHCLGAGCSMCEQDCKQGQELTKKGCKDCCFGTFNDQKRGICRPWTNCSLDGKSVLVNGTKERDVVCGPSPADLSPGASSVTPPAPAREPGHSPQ

Binder | binding result
B18 | no binding (tested: No binding up to 5 µM)
B19 | no binding (tested: No binding up to 5 µM)
B20 | no binding (tested: No binding up to 5 µM)

Molecular target: T2, Recombinant human CD137 (R&D systems), …
Experiment: SPR (Biacore), biotinylated human CD137 captured on streptavidin chip, peptide as analyte, 25°C
Experimental: (§1) Biacore experiments were performed to determine kₐ (M⁻¹s⁻¹), kd (s⁻¹), KD (nM) values of monomeric peptides binding to human CD137 protein. […] The protein was desalted to remove uncoupled biotin using spin columns into PBS.
(§2) For analysis of peptide binding, a Biacore T200 or a Biacore 3000 instrument was used with a XanTec CMD500D chip. Streptavidin was immobilized on the chip using standard amine-coupling chemistry at 25° C. with HBS-N(10 mM HEPES, 0.15 M NaCl, pH 7.4) as the running buffer. Briefly, the carboxymethyl dextran surface was activated with a 7 min injection of a 1:1 ratio of 0.4 M 1-ethyl-3-(3-dimethylaminopropyl) carbodiimide hydrochloride (EDC)/0.1 M N-hydroxy succinimide (NHS) at a flow rate of 10 μl/min. For capture of streptavidin, the protein was diluted to 0.2 mg/ml in 10 mM sodium acetate (pH 4.5) and captured by injecting 120 μl of onto the activated chip surface. Residual activated groups were blocked with a 7 min injection of 1 M ethanolamine (pH 8.5) and biotinylated CD137 captured to a level of 270-1500 RU. Buffer was changed to PBS/0.05% Tween 20 and a dilution series of the peptides was prepared in this buffer with a final DMSO concentration of 0.5%. The top peptide concentration was 500 nM with 6 further 2-fold or 3-fold dilutions. The SPR analysis was run at 25° C. at a flow rate of 90 μl/min with 60 seconds association and 900 seconds dissociation. After each cycle a regeneration step (10 μl of 10 mM glycine pH 2) was employed. Data were corrected for DMSO excluded volume effects as needed. All data were double-referenced for blank injections and reference surface using standard processing procedures and data processing and kinetic fitting were performed using Scrubber software, version 2.0c (BioLogic Software). Data were fitted using simple 1:1 binding model allowing for mass transport effects where appropriate.

Binder | Kd [nM]
B21 | 88
B22 | 66.7
B23 | 321
B24 | 63.1
B25 | 57.8
B26 | 12.3
B27 | 260
B28 | 122
B29 | 99.4
B30 | 264
B31 | 11.4
B32 | 361
B33 | 101
B34 | 112

Molecular target: T2, Recombinant human CD137 (R&D systems), …
Experiment: SPR (Biacore), biotinylated human CD137 captured on streptavidin chip, peptide as analyte, 25°C; BCY7742 (Monomer 3A), a separate monomer number from BCY8095
Experimental: as §1
as §2, with “After each cycle a regeneration step (10 μl of 10 mM glycine pH 2) was employed. Data were corrected for DMSO excluded volume effects as needed. All data were double-referenced for blank injections and reference surface using standard processing procedures and data processing and kinetic fitting were performed using Scrubber software, version 2.0c (BioLogic Software). Data were fitted using simple 1:1 binding model allowing for mass transport effects where appropriate.” left out

Binder | Kd [nM]
B35 | 855

Molecular target: T2, Recombinant human CD137 (R&D systems), …
Experiment: SPR (Biacore), biotinylated human CD137 captured on streptavidin chip, peptide as analyte, 25°C; BCY8095 (Monomer 3-BCN), a separate monomer number from BCY7742
Experimental: as §1
as §2, with “After each cycle a regeneration step (10 μl of 10 mM glycine pH 2) was employed. Data were corrected for DMSO excluded volume effects as needed. All data were double-referenced for blank injections and reference surface using standard processing procedures and data processing and kinetic fitting were performed using Scrubber software, version 2.0c (BioLogic Software). Data were fitted using simple 1:1 binding model allowing for mass transport effects where appropriate.” left out

Binder | Kd [nM]
B36 | 0.685
